In patent publication US20220389066A1, “POLYPEPTIDES” (Affibody AB, priority 2019, published 2022):

Tests used:
[1] = molecular target: T1, ZH 05 as periplasmic ABD fusion AQHDEALE-[ZH 05]-VDYV-[ABD]-YVPG (Streptococcus strain G148, UniProt P19909 254-299, limits assumed); assay: SPR (Biacore 2000) screening; periplasmic Z-ABD captured on anti-ABD antibody, 200 nM boxA(disulfide); 1:1 model
T1 construct: domain: GA3
Description: (§1) Biacore screening of Z variants: The binding of Z variants to boxA(disulfide) was analyzed in an affinity screening using a Biacore 2000 instrument. A polyclonal goat anti-ABD antibody (goat anti-ABD) was immobilized on CM5 chip surfaces basically as described for other proteins in Example 3. For the kinetic screening, analytes were injected in two steps. First, a Z-ABD (where ABD is GA3) periplasmic extract was injected over the surface at 5 μl/min for 10 min. As a second step, 200 nM boxA(disulfide) was injected at 20 μl/min for 5 min, followed by 10 min of dissociation in running buffer HBS-EP. Glycine-HCl pH 2.0 (GE Healthcare, cat. no. BR100355) was used for regeneration of the antibody surfaces between the cycles. The temperature of the assay was 25° C. Before performing the kinetic analyses, the signal from 200 nM boxA(disulfide) injected over a reference surface containing goat anti-ABD but no Z-ABD sample was subtracted from the sensorgram of Z-ABD binding to boxA(disulfide). […] A periplasmic extract of ZH 01 was included in the screening analysis for comparison.
(§2) Biacore screening of Z variants: Seven new unique Z variants giving the highest response in ELISA-screen, ZH 04 (SEQ ID NO:4), ZH 05 (SEQ ID NO:5), ZH 06 (SEQ ID NO:6), ZH 07 (SEQ ID NO:7), ZH 08 (SEQ ID NO:8), ZH 09 (SEQ ID NO:9) and ZH 10 (SEQ ID NO:10) were submitted to a Biacore affinity screening together with ZH 01 (SEQ ID NO:1) and ZH 29 (SEQ ID NO:29; its binding motif is identical to that of ZH 01, but the sequence comprises scaffold amino acid variations V1A, D2E, Y5F, N52S and D53E). A single concentration of boxA(disulfide) was injected over each Z-ABD captured from periplasmic extracts on a sensor chip surface containing an anti-ABD antibody.

[2] = molecular target: T2, ZH 06 as periplasmic ABD fusion AQHDEALE-[ZH 06]-VDYV-[ABD]-YVPG (Streptococcus strain G148, UniProt P19909 254-299, limits assumed); assay: as above
T2 construct: domain: GA3
Description: as §1, §2

[3] = molecular target: T3, ZH 08 as periplasmic ABD fusion AQHDEALE-[ZH 08]-VDYV-[ABD]-YVPG (Streptococcus strain G148, UniProt P19909 254-299, limits assumed); assay: as above
T3 construct: domain: GA3
Description: as §1, §2

[4] = molecular target: T4, ZH 09 as periplasmic ABD fusion AQHDEALE-[ZH 09]-VDYV-[ABD]-YVPG (Streptococcus strain G148, UniProt P19909 254-299, limits assumed); assay: as above
T4 construct: domain: GA3
Description: as §1, §2

[5] = molecular target: T5, ZH 10 as periplasmic ABD fusion AQHDEALE-[ZH 10]-VDYV-[ABD]-YVPG (Streptococcus strain G148, UniProt P19909 254-299, limits assumed); assay: as above
T5 construct: domain: GA3
Description: as §1, §2

[6] = molecular target: T6, ZH 01 as periplasmic ABD fusion AQHDEALE-[ZH 01]-VDYV-[ABD]-YVPG (Streptococcus strain G148, UniProt P19909 254-299, limits assumed); assay: as above
T6 construct: domain: GA3
Description: as §1, §2

[7] = molecular target: T7, ZH 04 as periplasmic ABD fusion AQHDEALE-[ZH 04]-VDYV-[ABD]-YVPG (Streptococcus strain G148, UniProt P19909 254-299, limits assumed); assay: SPR (Biacore 2000) screening; periplasmic Z-ABD captured on anti-ABD antibody, 200 nM boxA(disulfide); 1:1 model; average of 2 measurements
T7 construct: domain: GA3
Description: as §1, with “comparison. […]” for “comparison.”

[8] = molecular target: T8, ZH 29 as periplasmic ABD fusion AQHDEALE-[ZH 29]-VDYV-[ABD]-YVPG (Streptococcus strain G148, UniProt P19909 254-299, limits assumed); assay: SPR (Biacore 2000) screening; periplasmic Z-ABD captured on anti-ABD antibody, 200 nM boxA(disulfide); 1:1 model; average of 3 measurements
T8 construct: domain: GA3
Description: as §1, with “comparison. […]” for “comparison.”

[9] = molecular target: T9, ZH 07 as periplasmic ABD fusion AQHDEALE-[ZH 07]-VDYV-[ABD]-YVPG (Streptococcus strain G148, UniProt P19909 254-299, limits assumed); assay: SPR (Biacore 2000) screening; periplasmic Z-ABD captured on anti-ABD antibody, 200 nM boxA(disulfide); 1:1 model; average of 8 measurements
T9 construct: domain: GA3
Description: as §1, with “comparison. […]” for “comparison.”

Kd [1]: ~54 nM
Kd [2]: ~71 nM
Kd [3]: ~31 nM
Kd [4]: ~91 nM
Kd [5]: ~47 nM
Kd [6]: ~4.7 nM
Kd [7]: ~54 nM
Kd [8]: ~36 nM
Kd [9]: ~44 nM
B1: boxA(disulfide), disulfide linked form of A-box domain of HMGB1 (other)
chain: MGKGDPKKPRGKMSSYAFFVQTCREEHKKKHPDASVNFSEFSKKCSERWKTMSAKEKGKFEDMAKADKARYEREMKTYIPPKGETKKKF
modifications: disulfide C23-C45
notes: also called b-boxA(disulfide)
